The values below are quoted from earlier work in article PMC10380471.

The target in data set [1] is consensus peptide.
Data set [2] deals with consensus peptide. This is another data set of the same source.
Data set [3] deals with consensus peptide. This is another data set of the same source.

Like-named read-outs stand apart in the source and are kept apart here.

Chain of Pim-2 (Q9P1W9 whole entry): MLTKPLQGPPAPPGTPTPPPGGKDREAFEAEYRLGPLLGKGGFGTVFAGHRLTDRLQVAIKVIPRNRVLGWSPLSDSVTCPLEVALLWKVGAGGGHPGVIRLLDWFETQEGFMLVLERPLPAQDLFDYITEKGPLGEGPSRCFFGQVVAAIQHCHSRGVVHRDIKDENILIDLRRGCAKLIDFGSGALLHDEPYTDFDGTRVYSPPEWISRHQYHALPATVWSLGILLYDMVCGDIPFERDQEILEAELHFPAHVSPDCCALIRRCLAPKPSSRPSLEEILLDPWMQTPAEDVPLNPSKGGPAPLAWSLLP
Chain of Pim-1 (P11309 whole entry): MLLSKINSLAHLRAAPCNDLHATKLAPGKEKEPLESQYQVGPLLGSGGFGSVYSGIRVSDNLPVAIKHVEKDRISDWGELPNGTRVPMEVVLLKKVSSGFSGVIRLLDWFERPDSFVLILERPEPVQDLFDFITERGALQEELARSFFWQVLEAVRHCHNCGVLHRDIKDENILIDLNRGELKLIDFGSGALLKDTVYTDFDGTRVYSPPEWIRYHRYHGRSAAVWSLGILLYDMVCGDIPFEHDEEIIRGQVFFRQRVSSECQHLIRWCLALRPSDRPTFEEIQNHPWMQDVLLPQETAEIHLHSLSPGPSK

By Kd is commonly meant the constant that tells how readily two partners part at equilibrium. For the substance Pim-1 (from UniProt P11309), the Kd with consensus peptide [1] was 58 nM.

With Pim-2 (from UniProt Q9P1W9), in the data set with consensus peptide [2], the Kd is 640 nM.

Pim-3 (from UniProt Q86V86): the Kd with consensus peptide [3] is 39 nM.
